Laboratory results published in US20160158359A1.
Blank lines part the entries; values can stand above or below the binder they belong to.

Assays:
[1] = target: HLA-A*03:01 recombinant MHC class I molecule (human); experiment: REVEAL MHC-peptide complex stabilisation assay, recombinant HLA-A*03:01; settings: remark: other sources report otherwise
[2] = target: recombinant HLA-A*03:01 MHC class I molecule (human); experiment: REVEAL MHC-peptide binding assay, stabilisation of ternary complex with recombinant MHC; settings: remark: other sources report otherwise; scale: score, % of positive control peptide
[3] = target: recombinant HLA-A*02:01 MHC class I molecule (human); experiment: as above; settings: remark: other sources report otherwise; scale: score, % of positive control peptide
[4] = target: HLA-B*08:01 recombinant MHC class I molecule (human); experiment: REVEAL MHC-peptide binding assay, stabilisation of ternary MHC-peptide complex, recombinant HLA; settings: remark: other sources report otherwise; scale: % of positive control peptide
[5] = target: HLA-A*11:01 recombinant MHC class I molecule (human); experiment: as above; settings: remark: other sources report otherwise; scale: % of positive control peptide

In Vitro Score (% of positive control peptide) [1]: 7
B1: … (peptide)
peptide: IFWVQRGAK

In Vitro Score [2]: 0.7
In Vitro Score [3]: 1.2
B2: … synthetic 9-mer peptide (overlapping reference peptide 1, K29R) (peptide)
peptide: VAFIIFWVR

In Vitro Score [4]: 0.1
In Vitro Score [5]: 34.6
B3: … synthetic 9-mer peptide (SEQ ID NO: 100), K29R variant of overlapping reference peptide 1 of the CD28 transmembrane/4-1BB junction (peptide)
peptide: VAFIIFWVR
